B1: KRT15 (parent)
chain: SNFHINVEESVDGQVVSSHKREI

Variants of: B1
Test: protein stability index of a GFP-peptide fusion (GPS, HEK-293T) (PSI 1-6); higher = more stable
Details: c terminus: native
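Note: lentivirally expressed fusions sorted by FACS into six bins by GFP to DsRed ratio, PSI derived from sequencing read proportions per bin multiplied by bin number.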

Variant	protein stability index
HNFHINVEESVDGQVVSSHKREI	2.44
VNFHINVEESVDGQVVSSHKREI	1.78
INFHINVEESVDGQVVSSHKREI	2.56
MNFHINVEESVDGQVVSSHKREI	1.31
NNFHINVEESVDGQVVSSHKREI	2.03
SNFHINVEESCDGQVVSSHKREI	2.69
SNFHINVEESYDGQVVSSHKREI	1.44
SNFHINVEESNDGQVVSSHKREI	2.33
SNFHINVEESSDGQVVSSHKREI	2.48
SNFHINVEESTDGQVVSSHKREI	1.67
SNFHINVEESMDGQVVSSHKREI	1.85
SNFHINVEESLDGQVVSSHKREI	1.34
SNFHINVEESPDGQVVSSHKREI	2.33
SNFYINVEESVDGQVVSSHKREI	2.37
SNFDINVEESVDGQVVSSHKREI	2.63
SNFPINVEESVDGQVVSSHKREI	2.57
SNFHTNVEESVDGQVVSSHKREI	3.02
SNFHKNVEESVDGQVVSSHKREI	2.14
SNFHENVEESVDGQVVSSHKREI	3.97
SNFHSNVEESVDGQVVSSHKREI	3.06
SNFHNNVEESVDGQVVSSHKREI	3.36
SNFHCNVEESVDGQVVSSHKREI	4.36
SNFHINVEESVDGQMVSSHKREI	4.02
SNFHINVEESVDGQNVSSHKREI	2.52
SSFHINVEESVDGQVVSSHKREI	1.96

Variant	protein stability index
SMFHINVEESVDGQVVSSHKREI	2.04
SCFHINVEESVDGQVVSSHKREI	2.13
SNFHINVEEAVDGQVVSSHKREI	2.85
SNFHINVEETVDGQVVSSHKREI	1.91
SNFHINVEEQVDGQVVSSHKREI	1.81
SNFHINVEEGVDGQVVSSHKREI	2.19
SNFHINVEESVDGAVVSSHKREI	2.04
SNFHINVEESVDGPVVSSHKREI	2.34
SNFHINVEESVDGLVVSSHKREI	1.65
SNFHINVEESVDGCVVSSHKREI	2.21
SNFHINVEESVDGHVVSSHKREI	1.6
SNFHINVEESVDGQVVSSHNREI	5.38
SNFHINVEESVDGQVVSSHGREI	3.06
SNFHINVEESVDGQVVSSHYREI	2.18
SNFHINVEESVDGQVVSSHWREI	3.4
SNFHINVEESVDGQVVSSHEREI	1.49
SNFHINVEESVDGQVVSSHHREI	2.51
SNFHINVEESVDGQVVSSHLREI	1.39
SNFHINVEESVDGQVVSSHQREI	2.77
SNFHINVEESVDGQVVSSHFREI	2.07
SNFHINVEESVDGQVVSSHDREI	3.86
SNFHINVEESVDGQVVSSHMREI	3.15
SNFHINVEPSVDGQVVSSHKREI	2.26
SNFHINVEKSVDGQVVSSHKREI	1
SNFHINVEQSVDGQVVSSHKREI	1.47

Variant	protein stability index
SNFHINVEESVDGQVVSDHKREI	3.92
SNFHINVEESVDGQVVSPHKREI	3.1
SNFHINVEESVDGQVCSSHKREI	2.25
SNFHINVEESVDGQVFSSHKREI	2.63
SNFHINVEESVDGQVNSSHKREI	2.46
SNFHINVEESVDGQVMSSHKREI	2.23
SNFHINVEESVDGQVPSSHKREI	2.18
SNFHINVEESVDGQVSSSHKREI	2.18
SNVHINVEESVDGQVVSSHKREI	2.18
SNAHINVEESVDGQVVSSHKREI	2.51
SNFHINVEESVDGQVVTSHKREI	2.5
SNFHINVEESVDGQVVVSHKREI	2.42
SNFHINVEESVDGQVVDSHKREI	1.8
SNFHINVEESVDGQVVISHKREI	1.12
SNFHINVSESVDGQVVSSHKREI	2.03
SNFHINVFESVDGQVVSSHKREI	3.87
SNFHINVIESVDGQVVSSHKREI	2.73
SNFHINVEESVDGQVVSSHKIEI	3.16
SNFHINVEESVDGQVVSSHKCEI	4.43
SNFHINTEESVDGQVVSSHKREI	3.07
SNFHINEEESVDGQVVSSHKREI	3.63
SNFHINMEESVDGQVVSSHKREI	1.14
SNFHINIEESVDGQVVSSHKREI	2.18
SNFHINWEESVDGQVVSSHKREI	2.64
SNFHINKEESVDGQVVSSHKREI	2.1

Variant	protein stability index
SNFHINLEESVDGQVVSSHKREI	1.34
SNFHINPEESVDGQVVSSHKREI	2.14
SNFHINVEESVDGQVVSSHKRLI	4.53
SNFHIPVEESVDGQVVSSHKREI	1.9
SNFHITVEESVDGQVVSSHKREI	2.42
SNFHIMVEESVDGQVVSSHKREI	2.11
SNFHIHVEESVDGQVVSSHKREI	2.28
SNFHINVEESVDGQVVSSHKREK	5.16
SNFHINVEESVDGQVVSSHKREY	4.55
SNFHINVEESVDGQVVSSHKREG	3.55
SNFHINVEESVDGQVVSSHKREN	4.98
SNFHINVEESVVGQVVSSHKREI	2.65
SNFHINVEESVEGQVVSSHKREI	2.21
SNFHINVEESVKGQVVSSHKREI	1.31
SNFHINVEESVPGQVVSSHKREI	1.95
SNFHINVEESVDVQVVSSHKREI	1.55
SNFHINVEESVDKQVVSSHKREI	2.29
SNFHINVEESVDAQVVSSHKREI	2.73
SNFHINVEESVDYQVVSSHKREI	2.59
SNFHINVEESVDGQVVSSFKREI	1.33
SNFHINVEESVDGQVVSSQKREI	2.88
SNFHINVEESVDGQVVSSPKREI	4.66

From the supplement of paper PMC10567573
